# Measured values from publication PMC12412786 (Nucleic Acids Research, 2025).
# Values joined by “and” are separate entries in the source; they are usually repeats but may differ in a detail not shown here. Equal values may be shown once.
# B1: murine PARP2 (poly(ADP-ribose) polymerase 2) (enzyme)
# chain: MAPRRQRSGSGRRVLNEAKKVDNGNKATEDDSPPGKKMRTCQRKGPMAGGKDADRTKDNRDSVKTLLLKGKAPVDPECAAKLGKAHVYCEGDDVYDVMLNQTNLQFNNNKYYLIQLLEDDAQRNFSVWMRWGRVGKTGQHSLVTCSGDLNKAKEIFQKKFLDKTKNNWEDRENFEKVPGKYDMLQMDYAASTQDESKTKEEETLKPESQLDLRVQELLKLICNVQTMEEMMIEMKYDTKRAPLGKLTVAQIKAGYQSLKKIEDCIRAGQHGRALVEACNEFYTRIPHDFGLSIPPVIRTEKELSDKVKLLEALGDIEIALKLVKSERQGLEHPLDQHYRNLHCALRPLDHESNEFKVISQYLQSTHAPTHKDYTMTLLDVFEVEKEGEKEAFREDLPNRMLLWHGSRLSNWVGILSHGLRVAPPEAPITGYMFGKGIYFADMSSKSANYCFASRLKNTGLLLLSEVALGQCNELLEANPKAQGLLRGKHSTKGMGKMAPSPAHFITLNGSTVPLGPASDTGILNPEGYTLNYNEFIVYSPNQVRMRYLLKIQFNFLQLW
# Biological target: the molecule itself
# Experiment: mass photometry
protein,measurement,value
B1,stoichiometry N,2 and 3
